The numbers were not newly measured in article PMC6934455, “Molecular Dynamics model of peptide-protein conjugation: case study of covalent complex between Sos1 peptide and N-terminal SH3 domain from Grb2” (Scientific Reports, 2019), which cites them from elsewhere.

The Kd is the concentration at which binding is half-saturated.

The data set has as its target Sos1 peptide (Homo sapiens) (UniProt Q07889).

Grb2 N-terminal SH3, sequence (P62993 1-58): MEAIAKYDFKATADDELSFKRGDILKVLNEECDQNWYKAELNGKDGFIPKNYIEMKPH

Take “Grb2 N-terminal SH3 (from UniProt P62993)”: the Kd was 3.5 µM.
